The labels stand for the following.
T1: His6-tagged recombinant Mis12C containing Dsn1-WT (human, UniProt Q9H410 1-356; Q96IY1 1-258; Q9H081 1-205; Q6P1K2 1-205)
T1 sequence (looked up) 1: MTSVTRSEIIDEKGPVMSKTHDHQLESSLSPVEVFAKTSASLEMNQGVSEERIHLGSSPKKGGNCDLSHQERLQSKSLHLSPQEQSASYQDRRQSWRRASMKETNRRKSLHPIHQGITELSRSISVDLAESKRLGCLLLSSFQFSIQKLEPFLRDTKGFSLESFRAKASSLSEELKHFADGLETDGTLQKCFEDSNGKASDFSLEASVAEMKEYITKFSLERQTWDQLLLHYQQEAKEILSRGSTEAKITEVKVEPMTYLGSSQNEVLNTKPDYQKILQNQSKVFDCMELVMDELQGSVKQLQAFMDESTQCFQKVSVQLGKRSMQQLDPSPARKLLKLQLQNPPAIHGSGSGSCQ
T1 sequence (looked up) 2: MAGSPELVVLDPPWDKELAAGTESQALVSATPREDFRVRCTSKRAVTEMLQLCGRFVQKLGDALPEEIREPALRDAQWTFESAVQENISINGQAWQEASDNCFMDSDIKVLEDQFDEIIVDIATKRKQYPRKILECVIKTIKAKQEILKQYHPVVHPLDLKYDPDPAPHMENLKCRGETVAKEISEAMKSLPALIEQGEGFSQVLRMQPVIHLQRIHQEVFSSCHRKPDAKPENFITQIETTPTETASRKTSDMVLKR
T1 sequence (looked up) 3: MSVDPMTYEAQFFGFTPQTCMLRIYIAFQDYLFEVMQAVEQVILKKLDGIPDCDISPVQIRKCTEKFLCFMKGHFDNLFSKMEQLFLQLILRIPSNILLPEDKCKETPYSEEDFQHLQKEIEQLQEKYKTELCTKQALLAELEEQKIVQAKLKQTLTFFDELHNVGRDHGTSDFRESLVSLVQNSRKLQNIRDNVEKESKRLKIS
T1 sequence (looked up) 4: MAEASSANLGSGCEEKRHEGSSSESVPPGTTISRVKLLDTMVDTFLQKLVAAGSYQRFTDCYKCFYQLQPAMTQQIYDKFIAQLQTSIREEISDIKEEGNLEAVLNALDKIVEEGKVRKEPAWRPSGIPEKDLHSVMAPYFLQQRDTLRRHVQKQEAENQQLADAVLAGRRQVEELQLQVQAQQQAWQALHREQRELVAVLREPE

B1: Recombinant Mis12C-WT (construct not told for this experiment) (complex)
chain 1: T1 sequence (looked up) 1
chain 2: T1 sequence (looked up) 2
chain 3: T1 sequence (looked up) 3
chain 4: T1 sequence (looked up) 4
B2: Spc24–Spc25 complex (Spc24^92–197, Spc25^70–224) (complex, human)
chain 1: EEDTRLKASLLQLTRELEELKEIEADLERQEKEVDEDTTVTIPSAVYVAQLYHQVSKIEWDYECEPGMVKGIHHGPSVAQPIHLDSTQLSRKFISDYLWSLVDTEW
chain 2: RQNKLIQEKKDNLLKLIAEVKGKKQELEVLTANIQDLKEEYSRKKETISTANKANAERLKRLQKSADLYKDRLGLEIRKIYGEKLQFIFTNIDPKNPESPFMFSLHLNEARDYEVSDSAPHLEGLAEFQENVRKTNNFSAFLANVRKAFTATVYN
B3: synthetic phospho-T85 CENP-T peptide containing residues 80–104 (peptide, UniProt Q96BT3 80-104, looked up)
peptide: HLEEQ[pT]PRTLLKNILLTAPESSILM

One test addresses CENP-C (UniProt Q03188). Briefly: anti-GFP IP, immunoblot. The note with it: reference: Dsn1-WT-GFP; sites S100,S109. On the technique in general: In western blotting, separated proteins are transferred to a membrane and probed.
Test [1] addresses fluorescein-labeled CENP-C^1–28 peptide (human, 5FAM (fluorescein) on the N-terminus). Briefly: MST.
Test [2] addresses T1, His6-tagged recombinant Mis12C …. Description: pull-down.
Test [3] deals with B2. Description: pull-down.

Non-standard residues stand in square brackets, D forms with d. No end group written: not given here. pT = C[C@@H](OP(=O)(O)O)[C@H](N)C(=O)O

For “Dsn1 (from UniProt Q9H410) Dsn1-S100A/S109A-GFP”, the “binding against the reference” value with CENP-C was “weaker”.

The Kd is the concentration at which binding is half-saturated. For B1, the Kd in test [1] was determined as 2100 ± 400 nM.

As to B2, the binding result in test [2] is recorded as “binds”.

Turning to B3, the binding result in test [3] is recorded as “binds”.

Source of the values: article PMC4298689 (The Journal of Cell Biology, 2015).
